Experimental data reported in US9994628B2, “Peptides and combination of peptides for use in immunotherapy against various tumors” (IMMATICS BIOTECHNOLOGIES GMBH, priority 2015, dated 2018).

Molecular target: HLA-A*02:01 (Homo sapiens, UniProt P04439, D140Y/D185E/D98H/E176V/E277Q/G131W/G231S/I119V/I121R/I166T/I218V/L300P/L318F/N151K/N90K/P208A/P217A/Q86G/Q94H/R138H/R169H/T345S)
Experiment: MHC binding assay: UV-ligand exchange and β2m ELISA (peptide exchange yield, Table 7)
Details: binding of HLA-class I restricted peptides to HLA-A*02:01, UV-ligand exchange
In short: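 Peptide-MHC complexes made by UV-mediated exchange of a cleavable ligand for test peptide; exchange yield measured by ELISA detecting β2m of stabilized complexes captured on streptavidin, using refolded HLA-A*02:01/MLA-001 monomer standards (15-500 ng/ml). Samples diluted 100-fold; HRP anti-β2m, TMB, absorbance 450 nm.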

Peptide exchange (MHC class I binding score, peptide exchange yield) | Substance
+++ (≥50% = +++) | 214 (ALFETLIQL; listed as Homo sapiens) [compound 214]
++ (≥20% = ++) | 215 (QIADIVTSV; listed as Homo sapiens) [compound 215]
++ (≥20% = ++) | 216 (ALSTVTPRI; listed as Homo sapiens) [compound 216]
++ (≥20% = ++) | 221 (IMLNSVEEI; listed as Homo sapiens) [compound 221]
++ (≥20% = ++) | 222 (LLTGVFAQL; listed as Homo sapiens) [compound 222]
+++ (≥50% = +++) | 224 (LLFDWSGTGRADA; listed as Homo sapiens) [compound 224]
++ (≥20% = ++) | 229 (YLYELEHAL; listed as Homo sapiens) [compound 229]
+++ (≥50% = +++) | 231 (LLDDIFIRL; listed as Homo sapiens) [compound 231]
++++ (≥75% = ++++) | 234 (VLLNEILEQV; listed as Homo sapiens) [compound 234]
+++ (≥50% = +++) | 239 (VIIKGLEEITV; listed as Homo sapiens) [compound 239]
+++ (≥50% = +++) | 242 (KLQEEIPVL; listed as Homo sapiens) [compound 242]
++ (≥20% = ++) | 243 (GLAEFQENV; listed as Homo sapiens) [compound 243]

The remaining lines, values behind:

Substance | Peptide exchange (MHC class I binding score, peptide exchange yield)
217 (LLWPSSVPA; listed as Homo sapiens) [compound 217] | +++ (≥50% = +++)
218 (SLTGANITV; listed as Homo sapiens) [compound 218] | +++ (≥50% = +++)
219 (GVVPTIQKV; listed as Homo sapiens) [compound 219] | ++ (≥20% = ++)
220 (ALSELERVL; listed as Homo sapiens) [compound 220] | +++ (≥50% = +++)
223 (ALHPVQFYL; listed as Homo sapiens) [compound 223] | +++ (≥50% = +++)
225 (FLPQPVPLSV; listed as Homo sapiens) [compound 225] | +++ (≥50% = +++)
226 (SLAGNLQEL; listed as Homo sapiens) [compound 226] | +++ (≥50% = +++)
227 (SEMEELPSV; listed as Homo sapiens) [compound 227] | + (≥10% = +)
228 (SLLELDGINLRL; listed as Homo sapiens) [compound 228] | +++ (≥50% = +++)
230 (KLLNMIFSI; listed as Homo sapiens) [compound 230] | +++ (≥50% = +++)
233 (SLFESLEYL; listed as Homo sapiens) [compound 233] | +++ (≥50% = +++)
235 (SLLNQPKAV; listed as Homo sapiens) [compound 235] | ++ (≥20% = ++)
236 (KMSELQTYV; listed as Homo sapiens) [compound 236] | +++ (≥50% = +++)
237 (ALLEQTGDMSL; listed as Homo sapiens) [compound 237] | +++ (≥50% = +++)
238 (HLQEKLQSL; listed as Homo sapiens) [compound 238] | ++ (≥20% = ++)
241 (KQFEGTVEI; listed as Homo sapiens) [compound 241] | +++ (≥50% = +++)
